The record followed here is the RNAGym collection of RNA variant scans (doi:10.1073/pnas.2313332121).

This sample holds only a part of the variants without activity. Bounds are passed on as bounds.

The chains are these.
B1: TPR 5TU (parent)
chain: GGAUCUUCUCGAUCUAACAAAAAAGACAAAUCUGCCACAAAGCUUGAGAGCAUCUUCGGAUGCAGAGGCGGCAGCCUUCGGUGGCGCGAUAGCGCCAACGUUCUCAACUAUGACACGCAAAACGCGUGCUCCGUUGAAUGGAGUUUAUCAUG

This series covers variants of B1. Nature of the series: polymerase ribozyme fitness, log enrichment relative to wild type (log ratio); higher = more active; in vitro selection for triplet polymerase activity. The procedure, abridged:
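Fitness measures genotype enrichment against wild-type enrichment on a logarithmic scale, with inverse-variance-weighted averaging of replicates. The logarithm is base 2, and genotypes were kept only with ≥10 input reads and ≥1 read per output in Illumina sequencing. The sequenced libraries came from one triplicate in vitro selection round, including frozen incubation at −7 °C, of PCR-built, transcribed mutant libraries of each subunit of a heterodimeric triplet polymerase ribozyme.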
GGAACUUCUCCAUCUAACAAAAAAGACAAAUCUGCCACAAUGCUUGAGACCAUCUUCAUAUGCAGAGGCGGCAGCCUUCGGCGGCGUGAUAUCGCCAACGUUCUCAACUAUGACACGCAAAACGCGUGCUCCGUUGAAUAGAGUUUAUCAUG [U4A G11C A41U G50C G58A G59U U82C C87U G92U G140A]: the “polymerase ribozyme fitness (log ratio)” value was not above -4.2.

Turning to GGAUCUUCUCGAUCUAACAACAAAGACAAAUCUGCCACAAAGCUUGAGAGCAUCUUCGGAUGCAGAGGCGGCAGCCUUCGGUGGCGCGAUAGAGCCAACGUUCACAACUAUGACACGCAAAACGCGUGCUCCGUUGAAUGCAGGUUAUCAUA [A21C C93A U104A G141C U144G G152A], the “polymerase ribozyme fitness (log ratio)” value was not above -4.2.

As to GGAUCUUCUCGAUCGAACAAAAAAGACAAAUCUGCCACAAAGCUUGAGAGUAUCUUCGGAUGCAGAGGCGGCAGCCUUCGGUGGCGCGAUAGCGCCAUCGUUCUCAACUAUGACGCGCAAAACGCGUGCUCCGUUAAAUGGAGUUUAUCAUG [U15G C51U A98U A115G G136A], the “polymerase ribozyme fitness (log ratio)” value is -2.29.

In the case of GGAUCUUCUCGAACUAACAAAAAAGACAAAUCUGCAACAAAGCUUGAGAACAUCUUCGGAUGCAGAGGCGGCAGCCUUUGGUGGCGCGAUAGCGCAAACGUUCUCAACUAUGACACGCAAAACGCGUGCUCCGUUGAAUGGAGUUUAUCAUG [U13A C36A G50A C79U C96A], the “polymerase ribozyme fitness (log ratio)” value was not above -4.2. To GGAUCUUCUCGAUCAAACAAAAAGUACAAAUAUGCCACAAAGCUUGAGAGCAUCUACGCAUGCAGAGGCGGCAGCCUUCGGGGGCGCGAUAGCGCCAACGUUGUCAACUAUGACACGCAAAACGCGUGCUCCGUUGAAUGGAGUUUAUCAUG [U15A A24G G25U C32A U56A G59C U82G C103G] belongs not above -4.2; to GGAUCUUCUCGAUCUAACAAAAAAGACAAAUCUGCCACAAAGCUUGAGAGAAUCUUUGUAUGCAGAGGCGGCAGCCUUCGGUGGCGCGAUAGCGCCAACCUUCUCAACUAUGACACGCUAAUCGCGUGCUCCGUUGAAUGGAGUGUAUCAUG [C51A C57U G59U G100C A119U A122U U145G], -4.13.

Take GGAUCUUCUCGAUCUAACAAAAAAUACAAAUCUGCCACAAAGCUUGAGAGCAUCUUCGGAUGCAGAGGCGGCAGCCUUCGGUGGCGCGAUAGCGCCAACGUUCUCAACUAUGACACGCAAAACGCGUGCUCUGUUGAAUGGAGUUUAUCAUG [G25U C132U]: the “polymerase ribozyme fitness (log ratio)” value was -2.32. In the case of GGAUCUUCUCGAUCUAACAAAAAAGACAAAUCUGCCACAAAGCUUGAGAGCAUCUUCCGAUGCAGAGGCGGCAGCCUUCGGUGGCGCGAUAGCGCCAACGUACUCAACUAUGAAACGCAAAACGCGUGCUCCGUUGAAUGGAGUUUAUCAUG [G58C U102A C114A], the “polymerase ribozyme fitness (log ratio)” value is -4.12. To GGAUCUUCUCGAUCUAACAAAAAAGACAAAUCUGCCACAAGGCUUGAGAGCAUCAUCGGAUGCAGAGGCGGCAGCCUUCGGUGGCGCGAUAGUGCCAACGUUCUCAACUAUGACACGCAAAACGCGUGCUCCGUUGAAUGGAGUUUAUCAUG [A41G U55A C93U] belongs -0.68; to GGAUCUUCUCGAUCUAACAAAAAAGACAAAUCUGCCACAAAGCUUGAGAGCAUCUUCGGAUGCAGAGGCGGCAGCCUUCGGUGGGGCGAUAGCGCCAACGUUCUCAACUAUGACAUGCAAAACGCGUGCUCCGUUGAAUGGAGCUUAUCAUG [C85G C116U U144C], -3.36; to GGAUCUUCUCGAUCUAACAAAAAAGACAAAUCUGCCACAAAGAUUGAGAGCAGCUUCGGAUGCUGAGGCGGCAGCCUUCGGUGGCGCGAUAGCGUCAACGUUCUCAACUUUGACACGCAAAACGCGUGCUCCGUUGAAUGGAGUUUAUCCUG [C43A U53G A64U C95U A110U A150C], not above -4.2. To GGAUCUUCUUGAUCUAACAAAAAAGACAAAUCUGCCACAAAGCUUGAGAGCAUCUUCGGAUGCAGAGGCGGCAGCCUUCGGUGGCGCGAUAGCGCCAACGUUCUCAACUAUGACACGCAAAAUGCGUGCUCCGUUGAAUGCAGUUUAUCAUG [C10U C123U G141C] belongs -4.03; to GGAUCUUCUCGAUCUAACAAAAAUGACAAAUCUGCCACACAGCUUGAGAGCAUCUUCGGAUGCAGAGGCGGCAGCCUUCGGUGGCGCGAUAGCGCCAUCGUUCUCAACUAUGACACGCAAAACGCGUGCUCCGUUGAAUGGAGUUUAUCAUG [A24U A40C A98U], 0.235.

For GGAUCUUCUCGAUCUAACAAAAAAGACAAAUCUGCCACAAAGCUUGAGAGCAUCAUCGGAUGCAGAGGCGGCAGCCUUCGGUGGCGCGAUAGUGCCAACGUUCUCAACUAUGACACGCAAAACGCGUGCUCCGUUGAAUGGAGUUUAUCAUG [U55A C93U], the “polymerase ribozyme fitness (log ratio)” value was -1.68. To GGAUCUUCUCGAUCUAACAAAAAAGACAAAUCUGCCACAAAGCUUGAGAGCUUCUUCGGAUGCAGAGGCGGCAGCCUUCGGUGUCACGAUUGCGCCAACGUUCUCAACUAUGACACGCAAUACGCGUGCUCCGUUGAAUGGAGUUUAUCAUG [A52U G84U G86A A91U A121U] belongs not above -4.2; to GGAUCUUCUCGAUCUAACAAAAAAGACAAAUCUGCCACAAAGCUUGAGAGCAUCUUCGGAUGCAGAGGCGGCAGCCUUCGGUCGCGCGAUAGCGCCAACGUUCUCAACUAUGACACGCAAAACGAGUGCUCCGUUUAAUGGAGUUUAUCAUG [G83C C125A G136U], -2.54. To GGAUCUUCUCGAUCUAACAAAAAAGACAAAUCUGUCACAAAGCUUGAGAGCAUAUUCGGAUGCAGAGGCGGCAGCCUUCGGUGACGCGAUAGCGCCAACGUUCUCAACUAUGACACGCAAAACGCGUGCUCCGUUGAAUGGAGUUCAUCAUG [C35U C54A G84A U146C] belongs -1.

GGAUCUUCUCGAUCUAACAAAAAAGACAAAUCUGCCACAAAGCUUGAGAGCAUCUUCGGAUGCAGAGGCGGCAGCCUUCGGUGGCGCGAUAGCGCCGACGUUCUCAGCUAUGACACGCAAAACGCGUGCUCCGUUGAAUGGAGUUUAUCAUG [A97G A107G]: the “polymerase ribozyme fitness (log ratio)” value is -4.13. To GGAUCGUCUCGAUCUAACAAAAAAGACAAAUCUGCCACAAUGCUCGAGAGCAUCUUCGGAUGCAGAGGCGGCAGCCUUCGGUGGCGCGAUAGCGCCAACGUUCUCAACUAUGACACGCAAAACGCGUGCUCCGUUGAAUGGAGUUUAUCAUG [U6G A41U U45C] belongs -2.17.
